In a protein production outcome set (Wang et al. 2014):

Assay: label from the status in PepcDB records
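Also: failed if final PepcDB status was selected cloned or expressed and not failed if soluble or beyond.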

Row | Sequence | protein production
1 | MAEATSALRKPVFTKVNELRPGTNGHSLNVKVVNTKMVMQRGGGRPMGPQSRQMRIAECLVGDETGIIIFTARNDQVDMMKEGSVVTLRNAKIDMYKGSMRLAVDRWGRVEVAEEPTDITVKDDNNLSLIEYELVSVET | failed
2 | MAEDQTVLAIDIGGSHVKIGLSTDGEERKVESGKTMTGPEMVAAVTAMAKDMTYDVIAMGYPGPVVHNKPLREPVNLGEGWVGYDYEGAFGRPVRIVNDALMQAIGSYNGGRMLFLGLGTGLGAAMIVENVAQPMEIAHLPYRKGKTYEHYVSEAYREKKGNAKWQKRVQDVVERLSAALEPDEVVIGGGNVERLENLPPKCRRGDNAMAFEGGFRLWKNADLIV | not failed
3 | MAEDYKLIDNEEKHRYEFQIDDKIAKIDYIKSNNGEIYLVHTEVPASLGGRGVGSQLAEKTLADIERQGLRLVPLCPFVAGYIHKHPEWKRIVMRGIHIK | failed
4 | MAEEHRCETPEGHRLCVNNCGFFGSSATMNLCSNCYGDLCLKQQQQASMKSTVESSLSPVIAPVLENYAAELEIPTTKKTEEKKPIQIPTEQPSPPQRPNRCTVCRKRVGLTGFMCRCGTTFCGSHRYPEVHGCTFDFKSAGREEIAKANPLVIAAKLQKI | failed
5 | MAEEQQNSSYSIGGNILPTPEEAATFQPQVVAEGGWDKCWEDGVTPWDQGRATPLILHLLDSSALPLGRTLVPGCGGGHDVVAMASPERFVVGLDISDKALNKANETYGSSPKAEYFSFVKEDVFTWRPNELFDLIFDYVFFCAIEPEMRPAWGKSMHELLKPDGELITLMYPMTDHEGGAPYKVALSSYEDVLVPVGFKAVSVEENPDSIPTRKGKEKLARWKKIN | failed
6 | MAEEVRQELSALAAIFCGPNEWEMLSCSETDGAVFRIHTTAEGLVGEDVPLELAFHLPVGYPLCLPGISVTSEHLTRAQCVTAKEKLLGEARKLVSEPMVHELVLWIQQNLRLVLSQPETVSSHEKCTLPESATGDDGPWMTLLRLDHMRARTKYVKAVEKWASELRLTGRLMFMGKLILILLQGDRSNIKEYLILQKTSKVDVDSSGKKCKEKMISVLSETKVQTEHKRFLAFEVKEYSTLEELQKEFGAAGLGELFSECVLGLVK | failed
7 | MAEIYRETEVTVARALRPPVPPKRASWIGTFFGVAADPRTYGALFYMLLSLLTGVFYFTWVVTGASLSVGMLILIIGVPLLVLFFGSVRVLSLVEGRVVETLLGVRMPRRPQHPGLQGGWLQRIGAMFTDARTWSTMLYFLLMLPLGILYFTVFCTLLSLSLGLAASPIAVLFDNVAVLTWDGVDVTSAWLTLPLCVVGVLLLFVTLHLARAFGTLHGMFAKQLLVKGGEAAA | failed
8 | MAEKQYDFTHVPKRQGNSIKWGVLKEKELPMWIAEMDFKIAPEIMASMEEKLKVAAFGYESVPAEYYKAVADWEEIEHRARPKEDWCVFASGVVPAISAMVRQFTSPGDQILVQEPVYNMFYSVIEGNGRRVISSDLIYENSKYSVNWADLEEKLATPSVRMMVFCNPHNPIGYAWSEEEVKRIAELCAKHQVLLISDEIHGDLVLTDEDITPAFTVDWDAKNWVVSLISPSKTFNLAALHAACAIIPNPDLRARAEESFFLAGIGEPNLLAIPAAIAAYEEGHDWLRELKQVLRDNFAYAREFLAKEVPEVKVLDSNASYLAWVDISALGMNAEDFCKYLREKTGLIISAGNGYRGNGHEFVRINLACPKELVIDGMQRLKQGVLNLNN | not failed
9 | MAEKRTLIAVIADEDTTTGLLLAGIGQITPETQEKNFFVYQEGKTTKEEITDKFNHFTEERDDIAILLINQHIAENIRARVDSFTNAFPAILEIPSKDHPYDPEKDSVLKRVRKLFGE | failed
10 | MAELDIGQHCQVQHCRQRDFLPFVCDGCSGIFCLEHRSKDSHGCSEVNVVKERPKTDEHKSY | not failed
11 | MAELNFKAIEEKWQKRWLEAKIFEPNIRDKPKEKKFYITVAFPYLSGHLHVGHARTYTIPDVIARFKRMQGYNVLFPMAWHITGSPIVGIAERIKNRDPKTIWIYRDVYKVPEEILWTFEDPINIVKYFMKAAKETFIRAGFSVDWSREFYTTSLFPPFSKFIEWQFWKLKEKGYIVKGAHRVRWDPVVGTPLGDHDLMEGEDVPILDYIIIKFELRENGEVIYLPAATLRPETVYGVTNMWVNPNATYVKAKVRRKDKEETWIVSKEAAYKLSFQDREIEVIEEFKGEKLIGKYVRNPVSGDEVIILPAEFVDPDNATGVVMSVPAHAPFDHVALEDLKRETEILEKYDIDPRIVENITYISLIKLEGYGDFPAVEEVNKLGIKSQKDKEKLEQATKTIYKAEYHKGIFKVPPYEGKPVQEVKEAIAKEMLEKGIAEIMYEFAEKNVISRFGNRAVIKIIHDQWFIDYGNPEWKEKARKALERMKILPETRRAQFEAIIDWLDKKACARKIGLGTPLPWDPEWVIESLSDSTIYMAYYTISRHINKLRQEGKLDPEKLTPEFFDYIFLEEFSEDKEKELEKKTGIPAEIIHEMKEEFEYWYPLDWRCSGKDLIPNHLTFFIFNHVAIFREEHWPKGIAVNGFGTLEGQKMSKSKGNVLNFIDAIEENGADVVRLYIMSLAEHDSDFDWRRKEVGKLRKQIERFYELISQFAEYEVKGNVELKDIDRWMLHRLNKAIKETTNALEEFRTRTAVQWAFYSIMNDLRWYLRRTEGRDDEAKRYVLRTLADVWVRLMAPFTPHICEELWEKLGGEGFVSLAKWPEPVEEWWNETIEAEEEFIRSVMEDIKEIIEVAKIENAKRAYIYTAEDWKWKVAEVVSEKRDFKSSMEELMKDSEIRKHGKEVAKIVQKLIKERTFDVKRINEEKALREAKEFMEKELGIEIIINPTEDKGGKKKQAMPLKPAIFIE | not failed
12 | MAEQHGDSPVPVELSVVGGFLIAVIVGMLFPADAMTRWMFHPAVVAGCCWAGQLWYVGRKLSVPPAAGNPWRYIFGMANTVTLLRGGLYAVVAGFLVVPATTDLAWVPAACYGVGVVLDKLDGTVARTVGEQTQLGTRLDMAFDTFGFVVAPLVAVFWGQLPVLYLSLSAARYAYVGGIRWRRYRDRPVFERPDSNLGKYLAGVQMVFITAALVPVVPTELVFRLTPVVLAPSLAVFLRDFLVASGRLPREWFDRQR | failed
13 | MAEQMRRVARLFGDWPETIIWTCLEGTMGDIYVDDSQSPQSALALYGRQSFFGFLAGQPHRDLLKICEGKNIILVPQNQAWSDLIEEVYGDGVRFFTRYATKKDTEFDLGHLQKLVDDLPESFDMKLIDRNLYETCLVEEWSRDLVGNYIDVEQFLDLGLGCVILHKGQVVSGASSYASYSAGIEIEVDTREDYRGLGLAKACAAQLILACLDRGLYPSWDAHTLTSLKLAEKLGYELDKAYQAYEWR | not failed
14 | MAERRVALVMADNDYRLVRPLANPIHDGEAMEAALKKLGFEVILETNRDLRRMRRALDDFREDAKGADVALVYFSGHGVEISGDNRLLPVDADASSVDQLDKTSLPLEEVRDAVAATAKVGLIVLDACRSDPFSASSGDGRGATSLTKDVADKVKPGLGRVGRAENILFAFSAAPGETAADGTGENSPFTTALTKYLATDGLEIRSVLTLVQQEVYDLSRGKQLPYVESGLPKLFFAAAAKEQLPERERLLLAMADVTPEMRGEVEQIASDADMPLAPLYGALISSDASHLSADSLNARLREAADAFVKVRSEMKTLASDDPQVAELRRQAEEQLSLGAFDGARALLAKAADIDNVSRQALKVNFASRTLSEAATRFLSGGAARADLDYTTAIGDFETVLSLYGEAGQTSLSLEQADRQSRTLEELGILYTTVGNVEAAGRAFTALLTNLEQRSRQETDPSVKRDLAISHIKLANIKMVQGDLPTSLEHYEAARDMLQDLTASVPDEKSWLGDLAMANDKIGNVLATQGDVGAAAKAYQQSLSIKRKLVDAQPNSASLLRDLTITYDEIGDLARTAGQLDGAQTAFEESLRIRLVLAENKPDPERQRAVSVSHERIGDVLRERGDAAGALVAYSKSQAIAEELVRHDPNDTDLKRDLSISYAKIGNALNDQENWPAALASYQQALAVARELAADDPGNTDWQRDLSVCLEKVAGVLDAQGDIRSALQNYQDSLAIVDRLTKLDPGNSDWQRDLSITLSEIGMLETRQRHFEGSRKAFEASLGIRQKLAQSDPNNAIWQFDLVQAYINYAYVAKDPKAVLTKALNLTLDLDRTGRLAPRDKPTIKYLRGLLAKLNAGKK | failed
15 | MAESTDQTEQLRELAEIGLEGYAPYLMNRIMGRYNANLRKEMTALGLSTAKMRALAILSAKDGLPIGTLGIFAVVEQSTLSRALDGLQADGLVRREVDSDDQRSSRVYLTPAGRAVYDRLWPHMRASHDRMFQGITPQERQAFLATLNKMLANIRVHEI | not failed
16 | MAESTRIGQESRVTLHFALKLEDGNVVDSTFDKQPASFKVGDGNLLPGFEQALFGLKAGDKRTLSILPEQGFGQPNPQNVQIMPRDQFQDMELAEGLLVIFNDAAKTELPGVVKAFDEQQVTVDFNHPLAGKTLAFEVEIIDVQPA | failed
